By Kd is commonly meant the concentration at which binding is half-saturated.

The target of the assay is BSA-Man (glycoprotein bearing 12 glycosylated sites) (bovine (from the name BSA)), P02769. The experiment in a line: SPR. As to conditions: remark: other sources report otherwise.
Sequence of BSA-Man (glycoprotein bearing 12 glycosylated sites) (bovine (from the name BSA)), P02769 (P02769 25-607): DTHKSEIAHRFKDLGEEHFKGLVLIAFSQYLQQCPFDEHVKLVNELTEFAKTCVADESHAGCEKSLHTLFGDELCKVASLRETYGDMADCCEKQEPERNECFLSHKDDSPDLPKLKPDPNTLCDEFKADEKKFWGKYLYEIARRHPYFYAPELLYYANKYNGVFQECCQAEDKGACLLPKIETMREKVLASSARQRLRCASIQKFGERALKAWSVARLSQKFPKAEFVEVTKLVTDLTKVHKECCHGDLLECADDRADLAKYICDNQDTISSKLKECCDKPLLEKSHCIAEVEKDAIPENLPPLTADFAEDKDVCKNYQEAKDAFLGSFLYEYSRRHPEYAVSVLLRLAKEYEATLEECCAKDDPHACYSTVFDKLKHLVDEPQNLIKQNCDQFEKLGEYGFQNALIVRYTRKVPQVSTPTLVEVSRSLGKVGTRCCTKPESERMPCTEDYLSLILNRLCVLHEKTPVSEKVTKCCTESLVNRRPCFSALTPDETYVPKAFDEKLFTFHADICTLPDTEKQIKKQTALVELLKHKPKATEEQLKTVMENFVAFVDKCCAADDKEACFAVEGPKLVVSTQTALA

B1: DC-SIGN ECD (construct without StreptagII), Q9NNX6 59-404 (domain or fragment)
chain: QVSKVPSSISQEQSRQDAIYQNLTQLKAAVGELSEKSKLQEIYQELTQLKAAVGELPEKSKLQEIYQELTRLKAAVGELPEKSKLQEIYQELTWLKAAVGELPEKSKMQEIYQELTRLKAAVGELPEKSKQQEIYQELTRLKAAVGELPEKSKQQEIYQELTRLKAAVGELPEKSKQQEIYQELTQLKAAVERLCHPCPWEWTFFQGNCYFMSNSQRNWHDSITACKEVGAQLVVIKSAEEQNFLQLQSSRSNRFTWMGLSDLNQEGTWQWVDGSPLLPSFKQYWNRGEPNNVGEEDCAEFSGNGWNDDKCNLAKFWICKKSAASCSRDEEQFLSPAPATPNPPPA
modifications: here or on the partner: 12 glycosylated sites (mannose glycans, up to 12 glycans displayed)
B1 had a Kd of 3.74 µM.

For the origin of these results see doi:10.1101/780452.
